Source: patent US20230143604A1, “QW DOSING OF GIP RECEPTOR AGONIST PEPTIDE COMPOUNDS AND USES THEREOF” (TAKEDA PHARMACEUTICAL COMPANY LIMITED, priority 2020, published 2023)
Starred links: 1 amine or outer side, 2 acyl side, 3 side chain; linkers in the order of their positions; H or OH if unused. Non-standard residues stand in square brackets, D forms with d. Groups on a side chain read outwards from the residue. No end group written: not given here. *: point of attachment. 2OEGgEgE‑C18 diacid = O=C(O)CCCCCCCCCCCCCCCCC(=O)N[C@@H](CCC(=O)N[C@@H](CCC(=O)NCCOCCOCC(=O)NCCOCCOCC(=O)*)C(=O)O)C(=O)O; C20 diacid = O=C(O)CCCCCCCCCCCCCCCCCCC(=O)*; C18 diacid = O=C(O)CCCCCCCCCCCCCCCCC(=O)*; γGlu = O=C(O)[C@H](CCC(=O)[*:2])N[*:1]; NMeY = CN[C@@H](Cc1ccc(O)cc1)C(=O)O; AEEA = NCCOCCOCC(=O)O; E∗ = not defined here; K∗ = not defined here; Aib = CC(C)(N)C(=O)O

T1: full-length human GIPR with an N-terminal FLAG tag, overexpressed on HEK-293T cells (human, UniProt P48546 22-466)
T1 sequence (looked up): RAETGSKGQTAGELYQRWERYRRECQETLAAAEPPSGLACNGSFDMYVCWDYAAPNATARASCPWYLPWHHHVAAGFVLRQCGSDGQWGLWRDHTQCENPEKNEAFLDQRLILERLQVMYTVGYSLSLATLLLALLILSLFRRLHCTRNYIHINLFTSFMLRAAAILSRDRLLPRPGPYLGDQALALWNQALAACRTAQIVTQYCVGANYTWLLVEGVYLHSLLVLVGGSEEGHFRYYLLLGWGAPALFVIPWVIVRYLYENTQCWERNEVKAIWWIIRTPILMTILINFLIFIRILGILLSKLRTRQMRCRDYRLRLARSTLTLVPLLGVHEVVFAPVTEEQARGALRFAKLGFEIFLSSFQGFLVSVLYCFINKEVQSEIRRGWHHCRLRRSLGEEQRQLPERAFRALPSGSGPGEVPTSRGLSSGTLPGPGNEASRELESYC

T2: full-length human GIPR with an N-terminal FLAG tag (human, UniProt P48546 22-466)
T2 sequence (looked up): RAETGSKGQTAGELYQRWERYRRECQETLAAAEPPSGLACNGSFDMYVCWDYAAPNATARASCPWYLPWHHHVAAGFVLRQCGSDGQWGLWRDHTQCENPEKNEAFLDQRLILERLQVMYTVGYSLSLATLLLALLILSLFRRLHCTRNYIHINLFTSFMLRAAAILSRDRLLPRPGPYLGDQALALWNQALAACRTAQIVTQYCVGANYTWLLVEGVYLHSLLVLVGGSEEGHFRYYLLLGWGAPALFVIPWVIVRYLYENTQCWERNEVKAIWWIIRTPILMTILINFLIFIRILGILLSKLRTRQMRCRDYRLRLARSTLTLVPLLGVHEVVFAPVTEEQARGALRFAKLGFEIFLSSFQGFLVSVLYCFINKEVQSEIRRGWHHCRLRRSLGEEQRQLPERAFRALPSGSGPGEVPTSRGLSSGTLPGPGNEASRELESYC


Key:
Test in all cases: cell-based or functional assay
[1] = molecular target: T1, full-length human GIPR with an …
[2] = molecular target: T2, full-length human GIPR with an …
[3] = molecular target: full-length human GLP-1R with an N-terminal FLAG tag (human, UniProt P43220 24-463)
[4] = molecular target: full-length human GLP-1R with an N-terminal FLAG tag, overexpressed on HEK-293T cells (human, UniProt P43220 24-463)

Row | Binder | Human GIPR cAMP EC50, HEK293T [1] | Human GIPR cAMP EC50, HEK293T [2] | Human GLP1R cAMP EC50, HEK293T [3] | Human GLP1R cAMP EC50, HEK293T [4]
1 | Me-Y[Aib]EGTFISDYSI[Aib]LDR[Aib]AQ[Aib]KFVNWLLAQRG-OH (not fully specified (residues 1, 21)) [Compound No. 209] | 0.4 pM |  |  | 
2 | [NMeY][Aib]EGTFISDYSI[Aib]LDK[Aib]AQ[Aib]K([AEEA-AEEA-γGlu-γGlu-C18 diacid])FVNWLLAQRG-OH [Compound No. 220] | 0.5 pM |  |  | 
3 | YXEGTFISDYSIALDRXAQXDFVNWLLAQRPSSGAPPPS (N-methyl Tyr 1; Aib at 2,20; Lys(G5-C18 diacid) at 17; C-terminal OH) [Compound No. 51] |  | 0.6 pM | 14.8 nM | 
4 | [NMeY][Aib]EGTFISDYSIAEDRKHQ[Aib]NFVNWLLAQK([AEEA-AEEA-γGlu-C18 diacid])PSSGAPPPS-NH2 (also: E* at 14 and K* at 17 marked * (not explained)) [Compound No. 184] | 0.5 pM |  |  | 
5 | [NMeY][Aib]EGTFISDYSIALDR[Aib]AQ[Aib]K([AEEA-AEEA-γGlu-γGlu-C18 diacid])FVNWLLAQRG-OH [Compound No. 213] |  |  |  | 40.7 nM
6 | YXEGTFISDYSIAXDKAAQQXFVEWLLAQRG (N-terminus H; Aib at 2, 14; Km at 21 = Lys(2OEGgEgE-C18DA); C-terminus OH) [Compound No. 157] | 0.3 pM |  |  | 437 nM
7 | YXEGTFISDYSIAXDKAAQAXFVEWLLAQRG (N-terminus H; Aib at 2, 14; Km at 21 = Lys(2OEGgEgE-C18DA); C-terminus OH) [Compound No. 158] | 0.5 pM |  |  | 339 nM
8 | YXEGTFISDYSIAMDKIHQQDFVNWLLAQXGKKNDWKHNITQ (N-TER cell blank; Aib at 2; Km at 30 = Lys(2OEGgE-C18DA); C-terminus OH) [Compound No. 189] |  |  |  | 219 nM
9 | [NMeY][Aib]EGTFISDYSIALDR[Aib]K(2OEGgEgE‑C18 diacid)Q[Aib]DFVNWLLAQRG-OH (N-terminus assumed; SMILES CC[C@H](C)[C@H](NC(=O)[C@H](CO)NC(=O)[C@H](Cc1ccc(O)cc1)NC(=O)[C@H](CC(=O)O)NC(=O)[C@H](CO)NC(=O)[C@@H](NC(=O)[C@H](Cc1ccccc1)NC(=O)[C@@H](NC(=O)CNC(=O)[C@H](CCC(=O)O)NC(=O)C(C)(C)NC(=O)[C@H](Cc1ccc(O)cc1)NC)[C@@H](C)O)[C@@H](C)CC)C(=O)N[C@@H](C)C(=O)N[C@@H](CC(C)C)C(=O)N[C@@H](CC(=O)O)C(=O)N[C@@H](CCCNC(=N)N)C(=O)NC(C)(C)C(=O)N[C@@H](CCCCNC(=O)COCCOCCNC(=O)COCCOCCNC(=O)CC[C@H](NC(=O)CC[C@H](NC(=O)CCCCCCCCCCCCCCCCC(=O)O)C(=O)O)C(=O)O)C(=O)N[C@@H](CCC(N)=O)C(=O)NC(C)(C)C(=O)N[C@@H](CC(=O)O)C(=O)N[C@@H](Cc1ccccc1)C(=O)N[C@H](C(=O)N[C@@H](CC(N)=O)C(=O)N[C@@H](Cc1c[nH]c2ccccc12)C(=O)N[C@@H](CC(C)C)C(=O)N[C@@H](CC(C)C)C(=O)N[C@@H](C)C(=O)N[C@@H](CCC(N)=O)C(=O)N[C@@H](CCCNC(=N)N)C(=O)NCC(=O)O)C(C)C) [Compound No. 49] |  | 0.6 pM | 107 nM | 
10 | H-Y[Aib]EGTFISDYSI[Aib]LDKIK([AEEA-AEEA-γGlu-C18 diacid])QADFVNWLLAQRG-OH (SMILES CC[C@H](C)[C@H](NC(=O)[C@H](CCCCN)NC(=O)[C@H](CC(=O)O)NC(=O)[C@H](CC(C)C)NC(=O)C(C)(C)NC(=O)[C@@H](NC(=O)[C@H](CO)NC(=O)[C@H](Cc1ccc(O)cc1)NC(=O)[C@H](CC(=O)O)NC(=O)[C@H](CO)NC(=O)[C@@H](NC(=O)[C@H](Cc1ccccc1)NC(=O)[C@@H](NC(=O)CNC(=O)[C@H](CCC(=O)O)NC(=O)C(C)(C)NC(=O)[C@@H](N)Cc1ccc(O)cc1)[C@@H](C)O)[C@@H](C)CC)[C@@H](C)CC)C(=O)N[C@@H](CCCCNC(=O)COCCOCCNC(=O)COCCOCCNC(=O)CC[C@H](NC(=O)CCCCCCCCCCCCCCCCC(=O)O)C(=O)O)C(=O)N[C@@H](CCC(N)=O)C(=O)N[C@@H](C)C(=O)N[C@@H](CC(=O)O)C(=O)N[C@@H](Cc1ccccc1)C(=O)N[C@H](C(=O)N[C@@H](CC(N)=O)C(=O)N[C@@H](Cc1c[nH]c2ccccc12)C(=O)N[C@@H](CC(C)C)C(=O)N[C@@H](CC(C)C)C(=O)N[C@@H](C)C(=O)N[C@@H](CCC(N)=O)C(=O)N[C@@H](CCCNC(=N)N)C(=O)NCC(=O)O)C(C)C) [Compound No. 172] |  |  |  | 93.3 nM
11 | [NMeY][Aib]EGTFISDYSI[Aib]LDK[Aib]AQ[Aib]K([AEEA-AEEA-γGlu-γGlu-C18 diacid])FVNWLLAQRG-OH [Compound No. 211] | 0.5 pM |  |  | 
12 | Y[Aib]EGTFISDYSIALDK[Aib]AQRK([AEEA-AEEA-γGlu-γGlu-C18 diacid])FVEWLLAQRG-OH (N-terminus assumed; SMILES CC[C@H](C)[C@H](NC(=O)[C@H](CO)NC(=O)[C@H](Cc1ccc(O)cc1)NC(=O)[C@H](CC(=O)O)NC(=O)[C@H](CO)NC(=O)[C@@H](NC(=O)[C@H](Cc1ccccc1)NC(=O)[C@@H](NC(=O)CNC(=O)[C@H](CCC(=O)O)NC(=O)C(C)(C)NC(=O)[C@@H](N)Cc1ccc(O)cc1)[C@@H](C)O)[C@@H](C)CC)C(=O)N[C@@H](C)C(=O)N[C@@H](CC(C)C)C(=O)N[C@@H](CC(=O)O)C(=O)N[C@@H](CCCCN)C(=O)NC(C)(C)C(=O)N[C@@H](C)C(=O)N[C@@H](CCC(N)=O)C(=O)N[C@@H](CCCNC(=N)N)C(=O)N[C@@H](CCCCNC(=O)COCCOCCNC(=O)COCCOCCNC(=O)CC[C@H](NC(=O)CC[C@H](NC(=O)CCCCCCCCCCCCCCCCC(=O)O)C(=O)O)C(=O)O)C(=O)N[C@@H](Cc1ccccc1)C(=O)N[C@H](C(=O)N[C@@H](CCC(=O)O)C(=O)N[C@@H](Cc1c[nH]c2ccccc12)C(=O)N[C@@H](CC(C)C)C(=O)N[C@@H](CC(C)C)C(=O)N[C@@H](C)C(=O)N[C@@H](CCC(N)=O)C(=O)N[C@@H](CCCNC(=N)N)C(=O)NCC(=O)O)C(C)C) [Compound No. 156] | 1.3 pM |  |  | 10.2 nM
13 | [NMeY][Aib]EGTFISDYSI[Aib]LDR[Aib]AQ[Aib]K([AEEA-AEEA-γGlu-γGlu-C20 diacid])FVNWLLAQRG-OH [Compound No. 159] | 0.9 pM |  |  | 11.7 nM
14 | Me-Y[Aib]EGTFISDYSIALDR[Aib]HQQ[E∗]FV[K∗]WLLAQK([AEEA-AEEA-γGlu-C18 diacid])PSSGAPPPS-NH2 (not fully specified (residue 1); reading uncertain; also: E* at 21 and K* at 24 marked, meaning not given here) [Compound No. 181] | 0.4 pM |  |  | 
